From article PMC8902816, “Plasmodium falciparum GBP2 Is a Telomere-Associated Protein That Binds to G-Quadruplex DNA and RNA”

T1: PfGBP2 (Plasmodium falciparum, UniProt Q8IJX3 1-246)
T1 sequence: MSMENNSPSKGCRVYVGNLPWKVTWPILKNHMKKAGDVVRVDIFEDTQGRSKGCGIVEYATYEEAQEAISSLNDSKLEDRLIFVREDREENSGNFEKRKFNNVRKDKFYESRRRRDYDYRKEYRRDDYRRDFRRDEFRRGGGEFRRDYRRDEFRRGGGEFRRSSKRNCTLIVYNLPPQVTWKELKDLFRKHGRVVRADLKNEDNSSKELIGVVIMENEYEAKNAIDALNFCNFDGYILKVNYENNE


Legend:
PfGBP2 [1] = target: T1, PfGBP2; test: EMSA; 50 ng dIdC; EMSA: 1 ug GBP2 (bacterial extract), 50 ng dIdC, 20 fmol biotin probe, 20 min, room temperature, 200-fold competitor, 0.5x TBE 4-12% gel; dot blot/ThT: oligos folded in 100 uM (so in the source) Tris pH 7.8 and 100 uM KCl, or LiCl up to 1 M; conditions: protein: recombinant; tags: 6xHis at N and C termini (pET-28a+); label: 3' biotin (EMSA)
PfGBP2 [2] = target: T1, PfGBP2; test: EMSA; 50 ng dIdC; not efficiently competed by unlabeled RNA, partially by unlabeled DNA; EMSA: 1 ug GBP2 (bacterial extract), 50 ng dIdC, 20 fmol biotin probe, 20 min, room temperature, 200-fold competitor, 0.5x TBE 4-12% gel; dot blot/ThT: oligos folded in 100 uM (so in the source) Tris pH 7.8 and 100 uM KCl, or LiCl up to 1 M; conditions: protein: recombinant; tags: 6xHis at N and C termini (pET-28a+); label: 3' biotin (EMSA)

| Binder | binding result (PfGBP2 [1]) | binding result (PfGBP2 [2]) |
| --- | --- | --- |
| GTGTATGCGTTATGTGTATGCGTGTGAGTG (ssDNA) [G-rich 1 scram] | no binding |  |
| TTAAAATTTATAATTATAAATTTTAA (ssDNA) [A/T only] | no binding |  |
| UUCAGGGUUCAGGGUUCAGGGUUCAGGGUUC (ssRNA) [RNA G-rich 2] |  | binds |
